Data from patent US20250188457A1, “COMPOSITIONS AND METHODS FOR THE TREATMENT OF GLIOBLASTOMA BY INHIBITION OF THE TFPI2-CD51-STAT6 SIGNALING AXIS” (Northwestern University, priority 2023, published 2025).

B1: TFPI2 recombinant protein (tissue factor pathway inhibitor 2; BioVision, #7481-10) (ligand, UniProt P48307 23-235, looked up)
chain: DAAQEPTGNNAEICLLPLDYGPCRALLLRYYYDRYTQSCRQFLYGGCEGNANNFYTWEACDDACWRIEKVPKVCRLQVSVDDQCEGSTEKYFFNLSSMTCEKFFSGGCHRNRIENRFPDEATCMGFCAPKKIPSFCYSPKDEGLCSANVTRYYFNPRYRTCDAFTYTGCGGNDNNFVSREDCKRACAKALKKKKKMPKLRFASRIRKIRKKQF
notes: Bought recombinant protein added to microglia at 20 ng/ml; also called recombinant TFPI2; secreted TFPI2

Tests used:
HMC3 microglia [1] = test: Incucyte live-cell and scratch wound healing migration of microglia; format: cell-based, human; conditions: TFPI2 recombinant protein 20 ng/ml; AS1517499 25 nM
Experimental: The scratch-wound assay was performed (Ref. 74; incorporated by reference in its entirety). For tracking single cell movement, microglia were cultured in 96-well plates (Corning, #3599) with different treatments. Incucyte Live Cell Analysis System was used to record cell movement over time. The time-lapse images were reconstructed and analyzed using TrackMate (Refs. 75-76; incorporated by reference in its entirety). The speed of each individual cell was calculated by processing images with LoG detector and Linear Assignment Problem (LAP) tracker.

[2] = system: CT2A cells and GSC272 cells; test: T cell-mediated cytotoxicity assay (LDH release); format: cell-based, human and mouse; conditions: TFPI2 recombinant protein 20 ng/ml; AS1517499 25 nM
Experimental: T cell-mediated cytotoxicity was determined by Cytotox96 non-radioactive cytotoxicity assay kit (Promega, #G1780) based on the release of lactate dehydrogenase (LDH). After expansion and activation, mouse primary CD8^+ T cells or human JURKAT T cells were collected. About 10^5 T cells were co-cultured with SIM-A9 microglia or PrhMG (1:1 ratio) treated with TFPI2 recombinant protein in the presence or absence of STAT6 inhibitor AS1517499 for 24 hrs. T cells (effector cells) were then collected for further co-culturing with CT2A cells or GSC272 cells (target cells) at different ratios (10000:1000, 5000:1000, 2500:1000, 1250:1000, 620:1000, 310:1000, 160:1000, 80:1000, 40:1000, 20:1000) for 5 hrs. Experimental groups and corresponding control groups, including effector cell spontaneous LDH release, target cell spontaneous LDH release, target cell maximum LDH release, volume correction control, and culture medium background control were set up following the manufacturer's instructions to evaluate T cell-mediated cytotoxicity on GSCs. Optical density (OD) was measured by a Biotek Synergy 2 SL Microplate Reader. The cytotoxicity was calculated by the formula: (experimental OD value-effector spontaneous OD value-target spontaneous OD value)/(target maximum OD value-target spontaneous OD value).

GSC23 and GSC262 cells = test: Tumorsphere formation assay (GSC self-renewal); format: cell-based, human; conditions: GSC262 and GSC23; indicated concentrations
Experimental: The tumorsphere formation assay was performed (Ref. 79; incorporated by reference in its entirety). GSCs were treated with different concentrations of recombinant TFPI2 protein for 24 hrs with or without inhibition of JNK or STAT3, or modified with TFPI21 KO, knockdown or overexpression. After treatment or genetic modifications, cells were centrifuged at 1500 rpm for 5 min and resuspended in the plain cell culture media without additional supplements. Cells were then seeded into a 96-wells plate at 100 cells/well. The number of tumorspheres in each well was imaged and quantified after 10 days.

[3] = target: T1, CD51 (integrin alpha V, ITGAV) on human microglia (HMC3 cell line, primary human microglia PrhMG) (human, UniProt P06756 31-1048); test: IP-MS: membrane proteins of PrhMG incubated with TFPI2 recombinant protein, immunoprecipitated with TFPI2 antibody, LC-MS; CD51 is one of the enriched membrane protein candidates
T1 construct: whole, on cells; Endogenous protein of human microglia; also called Integrin aV/CD51
Experimental: Permeabilized cells were centrifuged for 15 min at 16,000 g to remove the supernatant containing cytosolic proteins. The cell pellets were then incubated with 0.5 ml solubilization buffer at 4° C. for 30 min with constant mixing. Solubilized membrane and membrane-associated proteins were isolated by centrifuging at 16,000 g for 15 min at 4° C. Extracted membrane-associated proteins were proceeded for IP-MS pull-down assay. A total of […] cell membrane lysate was incubated with […] TFPI2 antibody (Abcam, #ab186747) or IgG control (Cell Signaling Technology, #2729) for 12 hrs with gentle rotation at 4° C. […] Protein A/G PLUS-Agarose (#sc-2003, Santa Cruz Biotechnology) were mixed with each sample on ice. The lysate bead mixture was incubated at 4° C. under rotary agitation for 4 hrs. The tubes were centrifuged to remove supernatant. The beads were then washed in lysis buffer three times to remove non-specific binding. After removing wash buffer, the complex was washed with pre-urea wash buffer (50 mM Tris pH 8.5, 1 mM EGTA, 75 mM KCl) to remove all residual supernatant. […] IP pulled-down samples were analyzed by LC-MS/MS using a Dionex UltiMate 3000 Rapid Separation nanoLC coupled to the Orbitrap Elite Mass Spectrometer (Thermo Fisher Scientific Inc, San Jose, CA). […]

HMC3 microglia [4] = test: Human phospho-kinase antibody array; format: cell-based; conditions: 20 ng/ml TFPI2 recombinant protein
Experimental: After starvation for 24 hrs followed by TFPI2 recombinant protein treatment for 1 hr, HMC3 cell lysate was prepared using a lysis buffer with […]. Phosphorylation profiles of kinases were determined using Proteome Profiler Human Phospho-Kinase Array Kit (Bio-Techne, #ARY003C) as the instruction manual. Signal was detected under ChemiDoc Touch Imaging System (Bio-Rad).

CD51 = test: Co-immunoprecipitation of TFPI2 and CD51 in microglia; format: binding, human and mouse; conditions: SIM-A9 and HMC3 microglia treated with 20 ng/ml TFPI2 recombinant protein for 1 hr; anti-CD51 or anti-TFPI2 antibody
Experimental: Co-IP was performed using Invitrogen™ Dynabeads™ Protein G Immunoprecipitation Kit (Thermo Fisher Scientific, #10007D). Briefly, human or mouse microglia were treated with 20 ng/ml TFPI2 recombinant protein for 1 hr. RIPA lysis buffer was then used to extract protein after washing with PBS. Magnetic beads (1.5 mg) were separated from the solution using a magnetic stand. […] TFPI2 antibody (Abcam, #ab186747), CD51 antibody (Cell Signaling Technology, #4711S), or rabbit IgG (isotype control, Cell Signaling Technology, #2729) was prepared in […] of antibody binding and washing Buffer. Antibody or IgG was incubated with magnetic beads for 10 min at room temperature with rotation. After removing the supernatant, antibody/IgG-conjugated magnetic beads were incubated with cell lysis buffer for 2 hrs at room temperature with rotation to immunoprecipitate TFPI2- or CD51-interacting antigens. The magnetic bead-antibody-antigen complex was washed three times using […] washing buffer and then eluted with the elution buffer. The complex was loaded into 4-12% SurePAGE gels to evaluate target protein expression after Co-IP.

T1 sequence (P06756 31-1048): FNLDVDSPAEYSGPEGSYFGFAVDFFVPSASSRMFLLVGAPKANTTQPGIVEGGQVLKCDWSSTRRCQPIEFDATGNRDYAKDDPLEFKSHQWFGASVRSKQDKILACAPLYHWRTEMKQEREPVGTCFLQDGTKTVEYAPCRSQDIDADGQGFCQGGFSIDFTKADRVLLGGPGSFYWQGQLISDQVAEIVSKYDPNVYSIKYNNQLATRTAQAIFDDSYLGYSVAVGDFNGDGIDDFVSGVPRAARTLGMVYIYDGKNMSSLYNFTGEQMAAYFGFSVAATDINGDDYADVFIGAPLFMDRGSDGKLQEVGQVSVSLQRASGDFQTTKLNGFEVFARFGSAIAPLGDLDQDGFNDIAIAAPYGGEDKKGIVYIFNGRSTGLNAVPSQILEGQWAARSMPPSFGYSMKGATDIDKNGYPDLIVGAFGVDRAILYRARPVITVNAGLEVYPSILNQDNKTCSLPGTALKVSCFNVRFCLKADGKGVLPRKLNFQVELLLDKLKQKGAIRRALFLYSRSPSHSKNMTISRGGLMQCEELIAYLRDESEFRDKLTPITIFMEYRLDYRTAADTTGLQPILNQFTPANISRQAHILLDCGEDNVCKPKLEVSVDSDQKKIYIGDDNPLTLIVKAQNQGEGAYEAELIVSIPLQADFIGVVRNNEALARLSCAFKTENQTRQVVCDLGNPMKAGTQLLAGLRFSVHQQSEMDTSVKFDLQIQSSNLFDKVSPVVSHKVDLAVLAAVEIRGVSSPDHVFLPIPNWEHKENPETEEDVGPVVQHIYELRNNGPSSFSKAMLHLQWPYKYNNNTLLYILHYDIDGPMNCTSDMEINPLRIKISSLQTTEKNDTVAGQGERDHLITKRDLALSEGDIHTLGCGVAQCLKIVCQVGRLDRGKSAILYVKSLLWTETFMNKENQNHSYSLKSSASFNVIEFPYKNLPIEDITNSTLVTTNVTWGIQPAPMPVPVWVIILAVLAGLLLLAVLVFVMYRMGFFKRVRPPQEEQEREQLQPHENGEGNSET

Molecule	TFPI2-induced HMC3 microglia migration, incucyte live-cell and scratch assays (HMC3 microglia [1])	suppression of T cell-mediated tumor cell cytotoxicity by TFPI2-polarized microglia [2]	GSC self-renewal (tumorspheres) upon TFPI2 recombinant protein (GSC23 and GSC262 cells)	fold change in TFPI2 IP group versus control IgG group [3] [fold]	kinases STAT6 and AKT in phospho-kinase array (HMC3 microglia [4])	interaction between CD51 and TFPI2 (CD51)
NC(=O)c1cnc(NCCc2ccc(O)c(Cl)c2)nc1NCc1ccccc1 [AS1517499]	impairment	rescued				
B1			Enhanced	≥ 2	activated	confirmed
